Measurements taken from US11180770B2, “HPPD variants and methods of use” (BASF Agricultural Solutions Seed US LLC, priority 2017, dated 2021).

B1: SEQ ID NO:1 (protein, listed as Pseudomonas fluorescens)
chain: MADLYENPMGLMGFEFIEFASPTPGTLEPIFEIMGFTKVATHRSKNVHLYRQGEINLILNNEPNSIASYFAAEHGPSVCGMAFRVKDSQKAYNRALELGAQPIHIDTGPMELNLPAIKGIGGAPLYLIDRFGEGSSIYDIDFVYLEGVERNPVGAGLKVIDHLTHNVYRGRMVYWANFYEKLFNFREARYFDIKGEYTGLTSKAMSAPDGMIRIPLNEESSKGAGQIEEFLMQFNGEGIQHVAFLTDDLVKTWDALKKIGMRFMTAPPDTYYEMLEGRLPDHGEPVDQLQARGILLDGSSVEGDKRLLLQIFSETLMGPVFFEFIQRKGDDGFGEGNFKALFESIERDQVRRGVLTAD
modifications: 4-hydroxyphenylpyruvate dioxygenase (HPPD; Pseudomonas fluorescens) (1)..(358)

Columns and labels:
soybean shoots = test: selection of soybean shoots with tembotrione (greening/bleaching); format: in vivo; conditions: wild-type soybean shoots treated with tembotrione as selection marker
Description: Soybean transformation was achieved by using methods well known in the art, such as the one described using the Agrobacterium tumefaciens mediated transformation soybean half-seed explants using essentially the method described by Paz et al. (2006), Plant cell Rep. 25:206. Transformants were identified by using the HPPD inhibitor herbicide “tembotrione” as selection marker. The appearance of green shoots was observed, and documented as an indicator of tolerance to the HPPD inhibitor herbicide tembotrione.

HPPD polypeptides [1] = test: coupled HPPD activity assay: turnover and residual turnover in crude extracts; format: biochemical, Pseudomonas fluorescens; conditions: presence of 100 μM Cmpd. 1; high substrate concentration; changes in absorbance (OD) at 320 nm
HPPD polypeptides [2] = test: as above; format: biochemical, Pseudomonas fluorescens; conditions: FIG. 2

Row | Molecule | effect on wild-type soybean shoots (soybean shoots) | Residual turnover (HPPD polypeptides [1]) | mode of inhibition by HPPD inhibitor herbicides (time-course of inhibition) (HPPD polypeptides [2])
1 | CS(=O)(=O)c1ccc(C(=O)C2C(=O)CCCC2=O)c(Cl)c1COCC(F)(F)F [tembotrione, 2-[2-chloro-4-(methylsulfonyl)-3-[(2,2,2,-trifluoroethoxy)methyl]benzoyl]-1,3-cyclohexanedione] | entirely bleached | – | –
2 | B1 | – | 0.021 | slow and tight binding inhibitor
